The numbers were not newly measured in paper PMC4166121, which cites them from elsewhere.

For the series, the target named is p38 MAPK (UniProt Q16539).
p38 MAPK, sequence (Q16539 2-360): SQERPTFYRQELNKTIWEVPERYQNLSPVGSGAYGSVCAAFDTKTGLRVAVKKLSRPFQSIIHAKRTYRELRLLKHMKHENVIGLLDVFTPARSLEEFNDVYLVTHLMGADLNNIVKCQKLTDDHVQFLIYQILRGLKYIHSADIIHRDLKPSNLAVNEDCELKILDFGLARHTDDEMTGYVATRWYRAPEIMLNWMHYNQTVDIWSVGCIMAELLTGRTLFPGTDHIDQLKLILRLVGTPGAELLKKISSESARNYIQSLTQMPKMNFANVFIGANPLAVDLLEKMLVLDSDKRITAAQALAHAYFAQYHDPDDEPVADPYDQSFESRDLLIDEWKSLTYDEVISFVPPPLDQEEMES

eNOS, sequence (P29474 2-1203): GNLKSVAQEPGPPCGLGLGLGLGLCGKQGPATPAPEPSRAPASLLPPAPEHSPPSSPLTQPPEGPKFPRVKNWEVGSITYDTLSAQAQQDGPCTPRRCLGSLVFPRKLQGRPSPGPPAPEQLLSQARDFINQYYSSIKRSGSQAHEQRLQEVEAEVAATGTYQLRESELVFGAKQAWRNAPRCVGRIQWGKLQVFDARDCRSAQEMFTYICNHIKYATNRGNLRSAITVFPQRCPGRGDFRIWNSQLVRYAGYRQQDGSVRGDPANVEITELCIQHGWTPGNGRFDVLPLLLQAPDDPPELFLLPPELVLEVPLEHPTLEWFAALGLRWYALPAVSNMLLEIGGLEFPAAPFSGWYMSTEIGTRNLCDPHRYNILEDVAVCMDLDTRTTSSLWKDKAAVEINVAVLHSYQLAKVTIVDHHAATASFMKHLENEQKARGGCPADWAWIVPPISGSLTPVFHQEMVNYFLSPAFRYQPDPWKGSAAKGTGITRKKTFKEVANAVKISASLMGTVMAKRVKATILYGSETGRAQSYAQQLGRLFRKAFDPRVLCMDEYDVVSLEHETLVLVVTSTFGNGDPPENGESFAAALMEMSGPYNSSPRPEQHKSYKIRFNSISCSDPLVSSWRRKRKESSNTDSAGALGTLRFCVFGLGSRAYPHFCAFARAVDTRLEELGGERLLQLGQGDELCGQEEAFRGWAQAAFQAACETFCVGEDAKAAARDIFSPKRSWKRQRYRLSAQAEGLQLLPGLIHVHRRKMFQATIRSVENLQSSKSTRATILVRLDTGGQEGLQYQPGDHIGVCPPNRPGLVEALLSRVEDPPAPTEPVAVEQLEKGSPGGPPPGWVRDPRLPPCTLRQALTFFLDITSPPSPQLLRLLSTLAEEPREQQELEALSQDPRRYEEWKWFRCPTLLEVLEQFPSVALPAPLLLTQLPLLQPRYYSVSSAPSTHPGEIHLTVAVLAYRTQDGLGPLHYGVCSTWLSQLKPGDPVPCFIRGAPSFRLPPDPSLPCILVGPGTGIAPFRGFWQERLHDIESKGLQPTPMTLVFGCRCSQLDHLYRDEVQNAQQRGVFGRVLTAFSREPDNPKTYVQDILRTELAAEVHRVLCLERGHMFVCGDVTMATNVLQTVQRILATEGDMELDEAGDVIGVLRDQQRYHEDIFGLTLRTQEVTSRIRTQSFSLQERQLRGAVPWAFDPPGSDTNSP

The Kd is the constant that tells how readily two partners part at equilibrium. Take eNOS (from UniProt P29474): the Kd is 0.08 nM.
